Test results from IntAct's records for PubMed 29039417.

B1: BBSome complex member BBS2 (Homo sapiens), Q9BXC9 (parent)
chain: MLLPVFTLKLRHKISPRMVAIGRYDGTHPCLAAATQTGKVFIHNPHTRNQHVSASRVFQSPLESDVSLLSINQAVSCLTAGVLNPELGYDALLVGTQTNLLAYDVYNNSDLFYREVADGANAIVLGTLGDISSPLAIIGGNCALQGFNHEGSDLFWTVTGDNVNSLALCDFDGDGKKELLVGSEDFDIRVFKEDEIVAEMTETEIVTSLCPMYGSRFGYALSNGTVGVYDKTSRYWRIKSKNHAMSIHAFDLNSDGVNELITGWSNGKVDARSDRTGEVIFKDNFSSAIAGVVEGDYRMDGHIQLICCSVDGEIRGYLPGTAEMRGNLMDTSAEQDLIRELSQKKQNLLLELRNYEENAKAELASPLNEADGHRGIIPANTRLHTTLSVSLGNETQTAHTELRISTSNDTIIRAVLIFAEGIFTGESHVVHPSIHNLSSSICIPIVPPKDVPVDLHLKAFVGYRSSTQFHVFESTRQLPRFSMYALTSLDPASEPISYVNFTIAERAQRVVVWLGQNFLLPEDTHIQNAPFQVCFTSLRNGGHLHIKIKLSGEITINTDDIDLAGDIIQSMASFFAIEDLQVEADFPVYFEELRKVLVKVDEYHSVHQKLSADMADHSNLIRSLLVGAEDARLMRDMKTMKSRYMELYDLNRDLLNGYKIRCNNHTELLGNLKAVNQAIQRAGRLRVGKPKNQVITACRDAIRSNNINTLFKIMRVGTASS
partner: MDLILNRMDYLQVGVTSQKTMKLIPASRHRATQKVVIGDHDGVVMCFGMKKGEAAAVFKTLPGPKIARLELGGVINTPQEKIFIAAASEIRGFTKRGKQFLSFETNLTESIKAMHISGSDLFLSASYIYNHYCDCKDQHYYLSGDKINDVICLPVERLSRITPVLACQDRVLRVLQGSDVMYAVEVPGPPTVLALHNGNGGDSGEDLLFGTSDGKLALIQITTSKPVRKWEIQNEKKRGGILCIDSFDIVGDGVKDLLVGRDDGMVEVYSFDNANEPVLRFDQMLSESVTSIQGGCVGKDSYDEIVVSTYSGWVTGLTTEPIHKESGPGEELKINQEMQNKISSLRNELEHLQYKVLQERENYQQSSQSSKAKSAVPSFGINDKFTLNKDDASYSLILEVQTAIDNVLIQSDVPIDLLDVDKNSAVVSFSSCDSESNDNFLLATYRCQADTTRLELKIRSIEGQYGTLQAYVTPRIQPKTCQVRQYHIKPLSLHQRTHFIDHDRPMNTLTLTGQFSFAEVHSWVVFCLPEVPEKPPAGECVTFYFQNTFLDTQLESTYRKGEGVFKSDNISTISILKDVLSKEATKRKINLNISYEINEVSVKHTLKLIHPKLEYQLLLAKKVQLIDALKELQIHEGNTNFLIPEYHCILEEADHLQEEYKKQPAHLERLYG

Variants of: B1
Details: with BBS7, Q8IWZ6-2

Effect of a mutation on the interaction, disrupting interaction strength:
G670C
N671E
N676T
I679A
I679E
I679K
I679L
L685A
L685E
R686A
R686E
G688A
G688E
G688K
G688R

Effect of a mutation on the interaction, with no effect:
C662K
N663A
N663E
N663K
N664A
N664E
N664K
H665A
H665E
H665K
T666A
T666E
T666K
E667A
E667K
L668A
L668E
L668K
L669A
L669E
L669K
G670A
G670E
G670K
N671A
N671K
L672A
L672E
L672K
K673A
K673E
A674E
A674K
V675A
V675E
V675K
N676A
N676E
N676K
Q677A
Q677E
Q677K
A678E
A678K
Q680A
Q680E
Q680K
R681A
R681E
R681K
A682E
A682K
G683A
G683E
G683K
R684A
R684E
R684K
L685K
R686K
V687A
V687E
V687K
K689A
K689E
P690A
P690E
P690K
K691A
K691E
N692A
N692E
N692K
